Binding signal data for 5 sequences are collected here from PMC8677719.

In this data set the test system is GST-Co-NF-kB RHD-only (Capsaspora owczarzaki). The experiment in a line: PBM. The following applies: ~300 nM protein; EMSA: 10 mM HEPES pH 7.8, 50 mM KCl, 1 mM DTT, 1 mM EDTA, 4% glycerol, 40 ug/ml poly-dI-dC, 2X BSA, 50 ug 293T extract, 30 C 30 min; PBM: 6 mM HEPES pH 7.8 …. On the technique in general: A gel shift assay detects complexes by their altered migration in electrophoresis.
Turning to “CCGATTAACATCACGGAATTCCCTGATGTTAATCGG (double strand) [PBM probe CGGAATTCCC]”, the binding signal was determined as 3.4 PBM z-score.

Turning to “CCGATTAACATCAGGAATTCCCATGATGTTAATCGG (double strand) [PBM probe GGAATTCCCA]”, the binding signal worked out at 4.61 PBM z-score.

Turning to “CCGATTAACATCAGGAATTCCCCTGATGTTAATCGG (double strand) [PBM probe GGAATTCCCC]”, the binding signal was 7.64 PBM z-score.

In turn, “CCGATTAACATCAAGGAATTCCCTGATGTTAATCGG (double strand) [PBM probe AGGAATTCCC]” came in with a binding signal of 4.22 PBM z-score.

Turning to “CCGATTAACATCAGGGAATTCCCTGATGTTAATCGG (double strand) [PBM probe GGGAATTCCC]”, the binding signal turned out to be 7.25 PBM z-score.
